Columns and labels:
ZFN 12257 (synthetic) = test: cell_activity; conditions: K562, pair with 12329 (pairing inferred from adjacent sites), Surveyor assay
ZFN 12270 (synthetic) = test: cell_activity; conditions: K562, pair with 12273, Surveyor assay; 34.6% in enriched SupT1 pool, >40% in primary CD4 T cells
HLA Class I [1] = test: flow cytometry on SupT1 clone B13, PE anti-mouse IgG secondary
HLA Class I [2] = test: flow cytometry on SupT1 clone B4, PE anti-mouse IgG secondary
HLA Class I [3] = test: flow cytometry on SupT1 clone A66, PE anti-mouse IgG secondary
HLA Class I [4] = test: flow cytometry on parental SupT1 cells, PE anti-mouse IgG secondary
ZFN 12281 (synthetic) = test: cell_activity; conditions: K562, pair with 12290 (pairing inferred from adjacent sites), Surveyor assay
ZFN 12290 (synthetic) = test: cell_activity; conditions: K562, pair with 12281 (pairing inferred from adjacent sites), Surveyor assay
ZFN 12273 (synthetic) = test: cell_activity; conditions: K562, pair with 12270, Surveyor assay; 34.6% in enriched SupT1 pool, >40% in primary CD4 T cells
ZFN 12329 (synthetic) = test: cell_activity; conditions: K562, pair with 12257 (pairing inferred from adjacent sites), Surveyor assay
[5] = target: CXCR4 isoform b, WT (352 a.a.) (human) (UniProt P61073); test: flow cytometry on parental SupT1 cells, PE anti-mouse IgG secondary
Sequence of UniProt P61073 (P61073 whole entry, canonical isoform): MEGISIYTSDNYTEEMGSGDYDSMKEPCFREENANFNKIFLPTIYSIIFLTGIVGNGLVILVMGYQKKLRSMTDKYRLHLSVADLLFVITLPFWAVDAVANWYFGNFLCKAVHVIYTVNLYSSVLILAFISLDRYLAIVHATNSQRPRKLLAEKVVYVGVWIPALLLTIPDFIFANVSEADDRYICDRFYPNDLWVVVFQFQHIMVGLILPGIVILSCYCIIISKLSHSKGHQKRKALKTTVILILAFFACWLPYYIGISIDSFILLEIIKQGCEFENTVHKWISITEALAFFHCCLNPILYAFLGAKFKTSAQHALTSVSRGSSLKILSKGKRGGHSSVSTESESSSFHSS

AGTCAGAGGCCAAGGAAGCTGTTGGCTG (double strand) [CXCR4 12257 target]
activity (ZFN 12257 (synthetic)): > 20 % NHEJ

ATGACTTGTGGGTGGTTGTGTTCCAGTT (double strand) [CXCR4 12270 target]
activity (ZFN 12270 (synthetic)): > 20 % NHEJ

Anti-HLA Cl-I W6/32 (antibody)
Mean Channel Fluorescence (HLA Class I [1]): 170
Mean Channel Fluorescence (HLA Class I [2]): 152
Mean Channel Fluorescence (HLA Class I [3]): 189
Mean Channel Fluorescence (HLA Class I [4]): 83

CAGTTGATGCCGTGGCAAACTGGTACTT (double strand) [CXCR4 12281 target]
activity (ZFN 12281 (synthetic)): > 20 % NHEJ

CCAGAAGGGAAGCGTGATGACAAAGAGG (double strand) [CXCR4 12290 target]
activity (ZFN 12290 (synthetic)): > 20 % NHEJ

GGGTAGAAGCGGTCACAGATATATCTGT (double strand) [CXCR4 12273 target]
activity (ZFN 12273 (synthetic)): > 20 % NHEJ

TTGGTGGCGTGGACGATGGCCAGGTAGC (double strand) [CXCR4 12329 target]
activity (ZFN 12329 (synthetic)): > 20 % NHEJ

anti-CXCR4 NT (4G10) (antibody)
Mean Channel Fluorescence [5]: 136

anti-CXCR4 mAb (12G5) (antibody)
Mean Channel Fluorescence [5]: 35

— patent US20100291048A1
